Data reported in the supplement of paper PMC12764529.
± gives the half width of the 95% confidence interval.

Experiment: folding stability dG unfold from chymotrypsin proteolysis; higher = more stable
How it was run: (§1)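 Designed mini-proteins (under 80 residues, no cysteine) in a PA-tagged cDNA display construct were digested with trypsin and chymotrypsin. Each protease was used at 11 concentrations (threefold dilutions) plus a no-protease condition, followed by sequencing. K50 was inferred by Bayesian fitting of sequencing counts, and unfolding free energy was derived against a sequence-predicted unfolded-state K50 and a shared folded-state K50, per protease or combined. Only designs with AlphaFold2 dimer inter-PAE above 15 were kept.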

Sequence	folding stability dG unfold [kcal/mol]
MRIEIRVEKVEDGFYKVTIRLEETGETLELVVPKSLEEAKAAAEELLRELFPDVKVTEIRVERVPLPEEDLS [r1_80_TrROS_Hall]	2.77 ± 0.063
SAGGSAPPPIKIKFKYPNGRPMELEFNPENGNYEIKQPDGEKEEVPMENIKEIRIPPGIKDVEIVPSAGGSA [r15_1043_TrROS]	-0.0709 ± 0.41
SAGGSAGGSAGGPITSIDTSGPVITVTATTPGGSVTMDVPPDLTLEEVEALLKANPELLNSAGGSAGGSAGG [r7_373_JUSTAS]	-0.265 ± 0.12
GEERTFSLWVKTKSPQEARQLQEKIKDILRGPGYEVKIDDVEVSPNGWMKVNITMRPGMPQDRLRDALRKIS [r1_485_TrROS]	5.24 ± 0.06
SAGGSAGGSAGGMLVDPSTNTVTINLPPNTTLTFNYPDSTLTVTVPANETLTVTFPLTSSAGGSAGGSAGGS [r10_464_JUSTAS]	0.947 ± 0.049
SMPLTPEEVEEVVEAVAKELEEETGEEVKAEVFYDPETGRFYAVIELPDGRRVRIEIDPETGEVRVEVEASA [r9_9_TrMRF]	4.17 ± 0.15
DRIEIDVEMYDGYFYKIEIRWPGNGEPRELMFPGSLSEAKDFAEDLIQEQHPGAPVDEIDVEPVPMPPGDFS [r1_80_TrROS]	2.01 ± 0.05
SAGGSAMVTPEERVEAALAYIRGKYGFPLSATPAQLREAGLPVRVELTVTDADGRPLATVTLEIPGSAGGSA [r15_391_TrMRF]	1.78 ± 0.089
SAGGMISEEDIEAAAKAIVEAAKNGDPERIEEEYARLEEALEEAEKEGDPERRGRLAKAVEAAKKLLGSAGG [r13_137_TrMRF]	1.75 ± 0.043
SAGGSAGGWIEINILVPLKPGQTPSELADEIAQEFQNQHGWEIKIDDVYPTDNYVWHKIEITPPSAGGSAGG [r6_639_TrROS]	1.49 ± 0.055
SAGGSAGGSAVAEEFKKKFPDKTVTVEAFTFERTVTHPDGGSSTERVTVLNVTVSSSDDPGSAGGSAGGSAG [r3_358_TrMRF]	2.15 ± 0.1
SAGGSAGGSAGGKYKILKIEKYKLPNGGYYYKALVYEEENGEWKEIYAKANSAKNFKFESAGGSAGGSAGGS [r10_326_TrMRF]	1.16 ± 0.11
SAGWIIKIYFPDKKKEIMISRFPDGQWWMVQVHDKKGEPRQTIPAGMPVDELLKDFPDAKVEVYPFEPPSAG [r5_314_TrROS]	2.59 ± 0.051
SAGGSAGGSMIFFPNITKEEFEEIFRKKGYKVKRYPSTNVIEVTGKDGKPIKAVVIPVSPEEFSAGGSAGGS [r12_211_TrMRF]	0.618 ± 0.13
SAGGSAGGSAMITSDDLEKLLKKLGIDPKKLGPEKLAKIFKELYPDAIITADPEGKAYIYPSAGGSAGGSAG [r3_375_TrMRF]	0.467 ± 0.19
SAGGSADGRVVELPVRIRLYRRDPVSGRWELVEEFEVPVRVPAPKDAVVGLRIERRGDRFRIVVGVSAGGSA [r15_537_TrMRF]	3.537 ± 0.019

Experiment: folding stability dG unfold (combined trypsin and chymotrypsin); higher = more stable
How it was run: as §1

Sequence	folding stability dG unfold [kcal/mol]
SAGSMLLIKITITFKDPNGNLLKTIPIEKEADPNDPEAIEKAKEEAEKLAEELLPEDELAEVKAEVLLLSAG [r5_793_JUSTAS]	2.24 ± 0.19
SAGGFEFEFTNPDGKKIKVEIERHPEEGYIMLKIQYGGKPVETFPPGDEFEIPPDGIDAVIMFRLPPESAGG [r13_958_TrROS]	2.91 ± 0.22
SAGGSAGGSAGGSVTISYNPETGTVVISSPKNKKIITINAENYTPEEILEKAKEAGIDLSAGGSAGGSAGGS [r4_49_TrMRF]	1.64 ± 0.045
SAGGSAGGSAGGMTYVTVTLKEGDTEVTLTFPLEKLPEVVPEPGIEILEVETSPLDPELLSAGGSAGGSAGG [r17_204_JUSTAS]	1.05 ± 0.12
SAVEIEFWFPGGMSVEEFVNEFSKILPGLRDVDIGVEPYPETDMWKVTATIRIVPPPSPEDQEEMQKNKSAG [r14_645_TrROS]	1.62 ± 0.1
SAGGSAGGWITLDLIKELAREAMNQAQLNGMENVPIEIRWPDGWRIKIEINMNKVEVDVQPWNDSAGGSAGG [r6_270_TrROS]	2.4 ± 0.15
SAGGSAGGSAGLEALKKALEALPPGEERELEIEVEVDGKLYRFRIRVEKTEDGEYKATIELESAGGSAGGSA [r18_493_TrROS_Hall]	4.76 ± 0.16
SAGGSAGGSAGGGKLAIRVEIEPVRTETRLRADGSLETRTEFRVRIEIRPVGNPDDPRNNSAGGSAGGSAGG [r7_523_TrMRF]	3.89 ± 0.073
SAGGSAMKKIKIEVEKKGDEYIVRIKIKNPDGKIEEIEIKLKDEEEAKKLAEELLKEGKIDEIELESAGGSA [r15_575_TrROS_Hall]	2.57 ± 0.18
SAMKLSPELLKKLGLSKEDIKEIEIEVEPVPELSEEDLKKKNVTVYKVKIKIKVNGKEYEVELLFVEPKSAG [r14_483_TrROS_Hall]	2.18 ± 0.15
SAGGKKIVIFIGPPEQMDRMQEQHPDEPVIPIPRDALQDPEPAKNLIKELQEKGKDVEIYLFKDFKPSAGGS [r8_376_TrROS]	-0.239 ± 0.17
SAGGSAGGSAGGMWYIRITYDNGREIWIPIGDPITIKHKDGKPVQIKEVEVYPLPPGQISAGGSAGGSAGGS [r10_20_TrROS]	2.58 ± 0.11
SAGGSAGGSGPELRPPDVPSTTVPLKVSPEEAKEILKELLGLPEDVEVPFGSIDPATGVITLVSAGGSAGGS [r12_815_JUSTAS]	1.03 ± 0.12
SRIKISIFRPGKIIPEIPIKVDSVEEAVEKVLEYIRKFPPNAPYYIMIEVEHTDPANGQKQEGTVHIPIKSA [r9_245_TrROS]	3.39 ± 0.12
SAGGGSSSTTLTLREVTEVIVIPVPPEEEELAEELAKKYESQGIKVELERLPDGTWKLTLTYYRGVSLSAGG [r13_702_JUSTAS]	1.03 ± 0.081
MRIEIRVEKVEDGFYKVTIRLEETGETLELVVPKSLEEAKAAAEELLRELFPDVKVTEIRVERVPLPEEDLS [r1_80_TrROS_Hall]	2.9 ± 0.07

Sequence	folding stability dG unfold [kcal/mol]
SAGGSAPPPIKIKFKYPNGRPMELEFNPENGNYEIKQPDGEKEEVPMENIKEIRIPPGIKDVEIVPSAGGSA [r15_1043_TrROS]	< -1
SAGGSAGGSAGGPITSIDTSGPVITVTATTPGGSVTMDVPPDLTLEEVEALLKANPELLNSAGGSAGGSAGG [r7_373_JUSTAS]	0.788 ± 0.087
GEERTFSLWVKTKSPQEARQLQEKIKDILRGPGYEVKIDDVEVSPNGWMKVNITMRPGMPQDRLRDALRKIS [r1_485_TrROS]	4.99 ± 0.07
SAGGSAGGSAGGMLVDPSTNTVTINLPPNTTLTFNYPDSTLTVTVPANETLTVTFPLTSSAGGSAGGSAGGS [r10_464_JUSTAS]	1.67 ± 0.1
SMPLTPEEVEEVVEAVAKELEEETGEEVKAEVFYDPETGRFYAVIELPDGRRVRIEIDPETGEVRVEVEASA [r9_9_TrMRF]	4.02 ± 0.1
DRIEIDVEMYDGYFYKIEIRWPGNGEPRELMFPGSLSEAKDFAEDLIQEQHPGAPVDEIDVEPVPMPPGDFS [r1_80_TrROS]	1.69 ± 0.19
SAGGSAMVTPEERVEAALAYIRGKYGFPLSATPAQLREAGLPVRVELTVTDADGRPLATVTLEIPGSAGGSA [r15_391_TrMRF]	1.65 ± 0.07
SAGGMISEEDIEAAAKAIVEAAKNGDPERIEEEYARLEEALEEAEKEGDPERRGRLAKAVEAAKKLLGSAGG [r13_137_TrMRF]	1.64 ± 0.12
SAGGSAGGWIEINILVPLKPGQTPSELADEIAQEFQNQHGWEIKIDDVYPTDNYVWHKIEITPPSAGGSAGG [r6_639_TrROS]	1.29 ± 0.083
SAGGSAGGSAVAEEFKKKFPDKTVTVEAFTFERTVTHPDGGSSTERVTVLNVTVSSSDDPGSAGGSAGGSAG [r3_358_TrMRF]	1.96 ± 0.11
SAGGSAGGSAGGKYKILKIEKYKLPNGGYYYKALVYEEENGEWKEIYAKANSAKNFKFESAGGSAGGSAGGS [r10_326_TrMRF]	1.08 ± 0.1
SAGWIIKIYFPDKKKEIMISRFPDGQWWMVQVHDKKGEPRQTIPAGMPVDELLKDFPDAKVEVYPFEPPSAG [r5_314_TrROS]	2.21 ± 0.086
SAGGSAGGSMIFFPNITKEEFEEIFRKKGYKVKRYPSTNVIEVTGKDGKPIKAVVIPVSPEEFSAGGSAGGS [r12_211_TrMRF]	0.668 ± 0.088
SAGGSAGGSAMITSDDLEKLLKKLGIDPKKLGPEKLAKIFKELYPDAIITADPEGKAYIYPSAGGSAGGSAG [r3_375_TrMRF]	1.2 ± 0.14
SAGGSADGRVVELPVRIRLYRRDPVSGRWELVEEFEVPVRVPAPKDAVVGLRIERRGDRFRIVVGVSAGGSA [r15_537_TrMRF]	3.25 ± 0.07
